Laboratory results published in the nanobody polyreactivity screen of Harvey et al. (2022).

Experiment: yeast display, Sf9 membrane polyspecificity reagent, FACS + sequencing; frameworks hold sequencing errors
How it was run: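 Galactose-induced (36–48 hours) yeast carrying a synthetic nanobody display library were exposed to 10% biotinylated, detergent-solubilized Sf9 membrane reagent at 4 °C for 1 hour. FACS followed streptavidin microbead enrichment, using low and high (top ~1%) gates for expression (anti-HA) and reagent binding (streptavidin). Colony PCR, MiSeq 2 × 250 sequencing and CDR-length filtering followed. Labels for polyreactivity reflect the gate of origin.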

Sequence	polyreactivity (PSR sort gate)
QVQLVESGGGLVQAGGSLRLSCAASGRIFQGYAMGWYRQAPGKERELDAAITVRGGTTYYADSVKGRFTISRDNAKNTVYLQMNRRKPEDTAVYYCNAAKLIHCYQYVYPASNSRYYYWGQGTQVTVSS	low polyreactivity
QVQLVESGGGLVQAGGSLRLSCAASGSIFTYYAMGRYRQAPGKDRQLVAAISSNGGSTYYADSVKGRFTISRDNAKNTVYLQMNSLKPEDTAVYYCATVVNTWYQNGYEYWGQGTQVTVSS	low polyreactivity
QVQLEESGGGLVQAGGRLRLTCAASGLTFYANAMGWYRQAPGKERELVATISVGTDSTNYADSVKGRFTISRDNAKNTVYLQMTSMKPEDTAVYYCKALYEEYYAQDPYDYWGQGTQVTVSS	high polyreactivity
QVQLVESGGGLVQAGGSLRLSCAASGITFPRYVMGWYRQAPGKEREFVAAINYSGGRTYYADSVKGRFTISRDNAKNTVYLQMNSLKPEDTAVYYCAVDLHVWPFWYDYWGQGTQVTVSS	high polyreactivity
QVQLVESGGGLVQAGGSLRLSCAASGIIFQYYAMGWYRQAPGKERELVAAISWSGGSTYYADSVKGRFTISRDNAKNTVYLQMNRLKPEDTAVYYCAARSRSYWPYEGDYWGQGTQVTVSS	low polyreactivity
QDQLVESGGGFVQAGGSLRLSCAASGSIFLINAMGWYRQAPGKERELVAAISWRGGTTYYADSVKGRFTISRDNAKNSVYLQLNSLKPEDTAVYYCAAYGGRFRGPTRYDYWVQGTQVTVSS	high polyreactivity
QVQLVESGGGLVQAGGSLRLSCAASGRIFSYYAMGWYRQAPGKERELVAAITSGGSTYYADSVKGRFTISRDNAKNTVYLQMNSLKPEDTAVYYCNVVSDFRYYYWGQGTQVTVSS	low polyreactivity
QVQLVESGGGLVQAGGSLRLSCAASGRIFYTNVMGWYRQATGKERELVAAISTGGGRTYYADSVKGRITISRDNAKNSVYLQMNSLKPEDTAVYDCAASGRYAIVWGDQYYGYYYWGQGTQVTVSS	high polyreactivity
QVQLVESGGGLVQAGGSLRLSCAASGSIFYSNVMGWYRQAPGKERELVARITVAGSTNYADSVKGRFTISRDNAKNTVYLQMNSLKPEDTAVYYCNARLVIYTYDYWGQGTQVTVSS	low polyreactivity
QVQLVESGGGLVQAGGSLRLICAASGLTFADYAMGWYRPAPGKERELVAAISRRGGSTYYADSVKGRFTISRDNAKNTVYLQMNSLKPEDTAVYYCAAYAYDVAFKRYKFDYWGQGTEVTVSS	high polyreactivity
QVQLVESGGGLVQAGGSLRLSWAASGFTFKYNAMGLYRQAHGKERELVAAISGSGGRTYYSDSVKGRFTISRDNAKNTVYLQMNSLKPEYTAVYYCAAVYLVTLGARYDYWGQGTQVTVSS	high polyreactivity
QVQLVESGGGLVQAGGSLRLSCAASGRTFWVYAMGWYRQAPGKERELVASISWSVGSTYYADSVKGRFTISRDNAKNTVYLQMNSLKPEDTAVYYCAVDPATNVEGDYWGQGTQVTVSS	low polyreactivity
QVQLVESGGGLVQAGGSLRLSCAASGFTYDLNAMGWYRQAPGKEREFVATISQSTGSTYYADSVKGRFTISRDNAKNTVYLQMNSLKPEDTAVYYCNKDRPYTLTWGLYEYWGQGTQVTVSS	low polyreactivity
QVQLVESGGGLVQAGGSLRLSCAASGSTFDTYAMGWYRPAPGKERELVAAISRSGTSTYYADSVKGRFTISRDNAKNTVYLQMNSLKPEDSAVYYCAAYGPRVNGEIGREYYYWGQGTQVTVSS	low polyreactivity
QVQLVESGGGLVQAGGSLRLSCAASGRTFGPYAMGWYRQAPGKERELVATISSNGASTYYADSVKGRFTISRDNAKNTVYLQMNSLKPEDTAVYYCAAEFHFWGYLYDYWGQGTQVTVSS	low polyreactivity
QVQLVESGGVLVQAGGSLRLSCAASGRIFPTYAMGWYRQAPGKERELVAAISQRGGSTYYADSVKGRFTISRDNAKNTVYLQMNSLKPEDTAVYYCAASYYRQSGEYDYWGQGTQVTVSS	low polyreactivity
QVHLVESGGGLVQAGGSLRLSCAASGRIFYTNAMGWYRQAPGKERELVAVISWGGDTTYYADSVKGRFTISRDNAKNTVSLQMNSLKPEDTEVYYCAARSKYTHSRQSDYWGQGTQVTVSS	low polyreactivity
QVQLVESGGGLVQAGGSLRLSCAASGSTIYAYAMGWYRQAPGKERELVAAIDSGGSTYYADSVKGRFTISRDNAKNTVYLQMNSLKPEDTAVYYCAVRHRYTRAYWGRDYWGQGTQVTVSS	low polyreactivity
QVQLVESGGGLVQAGGSLRLSCAASGSTFAWYDMGWYRQAPGNEREFVAAIDYGGGSTYADSVKGRFTISRDKEKNTVYLQMNSLKPEDTAVYYCNADNWVYLYDYWGQGTQVTVSS	low polyreactivity
QVQLVESGGGLVQAGGSLRLSCAASGRTFYLYTMGWYRQAPGKERELVATISDGGGGTYYADSVKGRFTISRDNAKNTVYLQMNSLKPEDPAVYYCAADPIDVRDVPIPHVDFDYWGQGTQVTVSS	low polyreactivity
QVQLVESGGGLVQAGGSLRLSCAASGRTFYGYGMGWYRQAPGKERELVAGISVRGGSTYYADSVKGRFTISRDNAKNTVYLQMNSLKPEDTAVYYCAALGWRPTYYYWGHGTQVTVSS	high polyreactivity
QVQLVESGGGLVQAGGSHRLSCAASGSTFVRNAMGWYRPAPAKERGLVAGISTSGGRTYYADSVKGRFTISRDNAKNTVYLQMNSLKPEDTAVYDCAVLAWRSIAYDKYDYWGQGTQVTVSS	high polyreactivity

Sequence	polyreactivity (PSR sort gate)
QVQLVESGGGLVHAGGSLRLSCAASGSTFGDNAMGWYRQAPGKERELVAAITSGTSTNYADSVKGRFTISRDNAKNTVYLQMNSLKPEDTAVYYCAAQYYGVAKQGLDEEDYWGQGTQVTVSS	low polyreactivity
QVQLVESGGGLVQAGGSLRLSGAASGNIFDNYAMGWYRQAPGKERELVAAITWSGGSTYYADSVKGRFTISRDNAKNTVYLQMNSLKPEDTAVYFCNTDYNHVFAYDHWGQGTQVTVSS	low polyreactivity
QVQHVESGGALVQAGGSLRLSCAASGSIFGDYAMGWYRQAPGKERELVAAITSDRDTYYADSVKGRFTISRDNAKNTVYLQMNSLKPEDTAVYYCNATYGGPYFIQYDYWGQGTQVTVSS	low polyreactivity
QVQLVESGGGLVQAGGSLRLSCAASGGTFQSNAMGWYRQAPGKERELVASITSRGSSTYYADSVKGRFTISRDNAKNTFYLLMNSLKPEDTAVYYCAKGSSWQIYYKGGIKGGYWGQGTQVTVSS	low polyreactivity
QVQLVESGGGLVQAGGSLRLSCAASGFIFEGNAMGWYRQAPGKERELVAAISSSSGRTRYADSVKGRFTISRDNAKNTVYLQMNSLKPEDTAVYYCAARRQSTRPGFYYWGQGTQVTVSS	high polyreactivity
QVQLVESCGGLVQAGGSLRLSCAASGSTFYRYAMGWYRQAPGKERELVARITRTGGITNYADSVKGRFTISRDNAKNTVYLQMNSLKPEDTAVYDCAKTNIRDHYYWGQGTQVTVSS	high polyreactivity
QVQLVESGGGLVQAGGSLRLSCAASGSIFYINAMGWYRQAPGKEREFVATITWSGDSTYYADSVKGRFTISRDNAKNTVYLQMNSLKPEDTAVYYCTARKQYQSYVDWEYDYWGQGTQVTVSS	low polyreactivity
QVQLVESGGGLDQAGGSLRLSCAASGRIVVGYAMGWYRQAPGKERELVAAINRSGSSTYYADSVKGRFTISRDNGKITVYLQMNSLKPEDTAVYYCNARSGNRYGPRYDYWGQGTQVTVSS	high polyreactivity
QVQLVESAGGLVQAGGSLRLSCADSGRLFYLYARGWYRQAPGKERELVAAISSTGRTTYADSVKGRFTISRDNAKNTVYLQMNSLKPEDTAVYYGAADFRLSGSYGGFDYWGQGTQVTVSS	low polyreactivity
QVQLVESGGGKVQAGGSLSLSCAASGSTFVVNAMGWYRQAPGKERELVAAIDGSDGSTYYADSEKGRFTISRDNAKNTVYLQMNSLKPEDTAVYYCAAEVLGRPDVENDYWGQGTKVTVSS	low polyreactivity
QVQLVESGGGLVQAGGSLRLSCAASGRTFYYYVMGWYRQAPGKERELVAAISARDGSTYYADSVKGRFTISRDNAKNTVYLQMNSLKPEDTAVYYCNVRALYTRRYDYWGQGTQVTVSS	high polyreactivity
QVQLVESGGGLVQAGGSLRLSCAASGFILYRYAMGWDRQAPGKDRELVAAITRRGGSTYYADSVKGRFTISRDNAKNTVYLQMNSLKPEDTAVYYCNADIGVYGTSDLDYWGQGTQVTLSS	high polyreactivity
QVQLVESGRGLVQAGGSLRLSCAASGIIFVSYMGWYRQAPGKERELVAAIRWSGGRTYYADSVKGRFTISRDNAKNTVYLQMNSLNPVDTAVYYCAADALRKPKIALYDYWGQGTQVTVSS	high polyreactivity
QVQLVESGVGLVQAGGSLRLSCAASGNIITTYAMGWYRQAPGKERELVAAISRTGGRTSYADSVKGRFTISRDNAKNTVYLQMNSLKPEDTAVYYCAAVQTVRQSAPRARILSDYWGQGTQVTVSS	high polyreactivity
QVQLVESGGGLVQAGGSLRLSCAASGRTFNYYAMGWYRQAPGKERELVAAISWGGGRTYYADSVKGRFTISRDNAKNTVYFQMNSLKPEDTAVFDCAARYLQLGLAYYYWGQGTQVTVSS	high polyreactivity
QVQLVESGGGLVQAGGSLRLSCAASGSIFGRNAMGWYRHAPGKERELVARISSRGGSTYYADSVKGRFTISRDNAKKTVYLQMNSLKPEDTAVYYCNRDRTWQTNDYWGQGTQVTVSS	high polyreactivity
QVQLVESGGGLVQAGGSLRLSCAASGFIFPSYVMGWYRQAPWKERELVATISHSGGSTYYADSVKGRFTLSRDNAKNTVYLQMNSLKPEDTAVYYCATRRRGPYSPYSPYDYWGQGTQVTVSS	high polyreactivity
QFQLVESGGGLVQAGGSLRLSCAASGGTFYSNAMGCYRQAPGKERDLVATITGGGRTYYADSVKGRFTISRDNAKNTVYLQMNSLKPEDNAVYYCAVRGYHQYKYGYWGQGTQVNVSS	high polyreactivity
QVQLVESGGGLVQAGGSLRLSCAASGSIFSINAMGWYRQAPGKERELVAAISASGGSTYYADSVKGRFTISRDNAKNTVYLQMNSLKPEDTAVYYCAAEGSPTGYDYWGQGTQVTVSS	low polyreactivity
QVHLVESGGGLGQAGGSLRLSCAASGIIFRLYAKGWYIPAPGKERELVAAISRRGDSTYYADSVKGRFTISRDNAKNTVYLQMIILKPEDTAVYYCAAERWGDYGYWGQGTQVTVSS	high polyreactivity
QVQLVESGGGLVQAGGSLRLSCAASGSILSLYTMGWYRQAPGKERELVARISRSGGSTYYADSVKGRFTISRDNAKNTVYLQMNSLKTEDTAVYYCAARPYVVIYYGKSRGYYWGQGTQVTVSS	high polyreactivity
